How the values were obtained:
Experiment in all cases: cell-based or functional assay
[1] = biological target: Met (h) (human (h), UniProt P08581 974-1390, limits assumed)
[2] = biological target: T1, PhKγ2 (h) (human (h), UniProt P15735 1-406)
T1 sequence (looked up): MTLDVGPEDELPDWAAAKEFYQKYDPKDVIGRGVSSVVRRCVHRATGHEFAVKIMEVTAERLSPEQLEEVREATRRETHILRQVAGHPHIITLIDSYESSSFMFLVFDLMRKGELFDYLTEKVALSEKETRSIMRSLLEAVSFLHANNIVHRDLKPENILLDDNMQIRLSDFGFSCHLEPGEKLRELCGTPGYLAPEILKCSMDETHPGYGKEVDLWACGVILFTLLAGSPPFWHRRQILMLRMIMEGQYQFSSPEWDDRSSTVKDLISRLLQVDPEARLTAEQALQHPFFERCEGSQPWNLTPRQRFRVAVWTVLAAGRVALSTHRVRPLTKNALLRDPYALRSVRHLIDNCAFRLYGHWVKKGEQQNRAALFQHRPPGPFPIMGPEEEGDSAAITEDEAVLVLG

[3] = biological target: PDGFRβ (h) (human (h), UniProt P09619 558-1106, limits assumed)
[4] = biological target: GSK3β (h) (human (h), UniProt P49841 1-420)
[5] = biological target: Syk (h) (human (h), UniProt P43405 1-635)
[6] = biological target: CK2 (h) (human (h), UniProt P68400 1-391)
[7] = biological target: SAPK2 a (h) (human (h), UniProt Q16539 1-360)
[8] = biological target: CKIB (h) (human (h))
[9] = biological target: PKCδ (h) (human (h), UniProt Q05655 1-676)
[10] = biological target: MLCK (h) (human (h))
[11] = biological target: T2, EphA2 (h) (human (h), UniProt P29317 591-976, limits assumed)
T2 sequence (looked up): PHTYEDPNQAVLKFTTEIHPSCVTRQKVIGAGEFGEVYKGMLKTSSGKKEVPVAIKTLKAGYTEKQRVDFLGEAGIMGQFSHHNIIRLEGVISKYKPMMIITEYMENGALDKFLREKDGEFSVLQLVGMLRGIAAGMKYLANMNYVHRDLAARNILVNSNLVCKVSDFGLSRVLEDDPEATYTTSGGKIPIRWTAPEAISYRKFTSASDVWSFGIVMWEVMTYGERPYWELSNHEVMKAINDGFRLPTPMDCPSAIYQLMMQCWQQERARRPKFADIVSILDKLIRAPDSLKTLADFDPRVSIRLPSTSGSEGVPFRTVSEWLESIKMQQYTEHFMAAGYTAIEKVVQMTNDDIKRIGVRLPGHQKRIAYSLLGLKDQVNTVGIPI

[12] = biological target: IGF-IR (h) (human (h), UniProt P08069 959-1367, limits assumed)
[13] = biological target: MAPKAP-K2 (h) (human (h), UniProt P49137 46-400, limits assumed)
[14] = biological target: MEKI (h) (human (h), UniProt Q02750 1-393)
[15] = biological target: T3, IRAK4 (h) (human (h), UniProt Q9NWZ3 1-460, limits assumed)
T3 sequence (looked up): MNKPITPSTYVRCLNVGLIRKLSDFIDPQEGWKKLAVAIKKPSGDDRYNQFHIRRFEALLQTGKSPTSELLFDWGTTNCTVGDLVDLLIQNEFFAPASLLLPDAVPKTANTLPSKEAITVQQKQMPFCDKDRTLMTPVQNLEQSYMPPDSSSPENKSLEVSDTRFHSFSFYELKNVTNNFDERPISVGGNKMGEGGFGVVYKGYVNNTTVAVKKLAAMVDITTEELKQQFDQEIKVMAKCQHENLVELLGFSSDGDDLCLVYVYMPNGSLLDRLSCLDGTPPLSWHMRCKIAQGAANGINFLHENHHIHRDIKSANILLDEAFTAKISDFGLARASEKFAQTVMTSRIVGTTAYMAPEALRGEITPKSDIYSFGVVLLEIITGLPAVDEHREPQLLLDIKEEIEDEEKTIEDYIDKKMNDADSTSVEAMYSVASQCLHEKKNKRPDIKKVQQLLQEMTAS

[16] = biological target: MSK1 (h) (human (h), UniProt O75582 1-802)
[17] = biological target: Rsk2 (h) (human (h), UniProt P51812 1-740)
[18] = biological target: TrkA (h) (human (h), UniProt P04629 441-796, limits assumed)
[19] = biological target: T4, Aurora-A (h) (human (h), UniProt O14965 1-403)
T4 sequence (looked up): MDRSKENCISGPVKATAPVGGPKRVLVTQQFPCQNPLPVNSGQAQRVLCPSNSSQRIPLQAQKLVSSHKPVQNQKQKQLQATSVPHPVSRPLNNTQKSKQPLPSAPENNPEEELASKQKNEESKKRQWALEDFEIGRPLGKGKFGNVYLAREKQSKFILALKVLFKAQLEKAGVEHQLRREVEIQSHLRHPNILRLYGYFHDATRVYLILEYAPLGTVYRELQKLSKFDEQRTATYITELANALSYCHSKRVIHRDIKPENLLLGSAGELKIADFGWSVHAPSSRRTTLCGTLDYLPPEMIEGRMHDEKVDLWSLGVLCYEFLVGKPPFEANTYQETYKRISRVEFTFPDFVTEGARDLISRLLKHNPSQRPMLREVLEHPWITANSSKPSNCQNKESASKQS

Chain of MSK1 (h) (O75582 whole entry): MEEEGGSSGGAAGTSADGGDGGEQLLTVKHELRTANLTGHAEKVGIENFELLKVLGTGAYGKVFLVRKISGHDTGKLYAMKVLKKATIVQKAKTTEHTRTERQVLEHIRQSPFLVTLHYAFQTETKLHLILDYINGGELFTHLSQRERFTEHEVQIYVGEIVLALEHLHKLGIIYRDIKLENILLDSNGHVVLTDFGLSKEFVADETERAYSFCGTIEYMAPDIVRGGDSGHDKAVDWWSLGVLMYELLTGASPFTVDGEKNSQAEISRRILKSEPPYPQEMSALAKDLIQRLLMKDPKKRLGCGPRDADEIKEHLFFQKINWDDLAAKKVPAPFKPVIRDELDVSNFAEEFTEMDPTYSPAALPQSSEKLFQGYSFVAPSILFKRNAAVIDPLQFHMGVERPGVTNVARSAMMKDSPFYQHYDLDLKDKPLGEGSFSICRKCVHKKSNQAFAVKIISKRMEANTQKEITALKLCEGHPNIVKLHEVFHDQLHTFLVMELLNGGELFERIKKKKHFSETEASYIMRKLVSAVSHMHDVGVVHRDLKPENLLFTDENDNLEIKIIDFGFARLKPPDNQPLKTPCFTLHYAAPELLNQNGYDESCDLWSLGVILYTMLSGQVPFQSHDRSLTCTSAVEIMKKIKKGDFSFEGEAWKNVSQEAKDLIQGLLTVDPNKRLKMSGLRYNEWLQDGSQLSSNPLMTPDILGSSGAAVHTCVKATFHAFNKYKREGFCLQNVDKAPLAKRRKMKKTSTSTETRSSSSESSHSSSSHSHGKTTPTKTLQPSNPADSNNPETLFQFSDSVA
Chain of PKCδ (h) (Q05655 whole entry, stated change not applied): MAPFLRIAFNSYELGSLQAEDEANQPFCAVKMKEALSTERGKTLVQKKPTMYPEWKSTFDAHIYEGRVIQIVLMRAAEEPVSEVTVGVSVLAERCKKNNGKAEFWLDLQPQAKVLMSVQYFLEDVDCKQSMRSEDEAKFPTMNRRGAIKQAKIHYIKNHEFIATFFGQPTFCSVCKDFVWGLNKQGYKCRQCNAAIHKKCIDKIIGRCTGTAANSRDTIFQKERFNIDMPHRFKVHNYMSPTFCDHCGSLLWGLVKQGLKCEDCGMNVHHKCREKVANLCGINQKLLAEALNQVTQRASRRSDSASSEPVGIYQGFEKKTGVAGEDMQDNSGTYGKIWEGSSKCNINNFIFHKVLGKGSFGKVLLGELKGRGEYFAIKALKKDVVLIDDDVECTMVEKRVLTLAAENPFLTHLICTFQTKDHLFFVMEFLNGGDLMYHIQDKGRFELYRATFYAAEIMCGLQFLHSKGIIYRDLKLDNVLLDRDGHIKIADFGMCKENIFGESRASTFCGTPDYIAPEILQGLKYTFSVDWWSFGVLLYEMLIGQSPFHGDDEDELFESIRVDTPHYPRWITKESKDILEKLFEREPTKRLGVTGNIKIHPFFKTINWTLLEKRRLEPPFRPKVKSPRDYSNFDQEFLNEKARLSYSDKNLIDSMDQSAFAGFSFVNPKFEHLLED
Chain of Met (h) (P08581 974-1390 limits assumed): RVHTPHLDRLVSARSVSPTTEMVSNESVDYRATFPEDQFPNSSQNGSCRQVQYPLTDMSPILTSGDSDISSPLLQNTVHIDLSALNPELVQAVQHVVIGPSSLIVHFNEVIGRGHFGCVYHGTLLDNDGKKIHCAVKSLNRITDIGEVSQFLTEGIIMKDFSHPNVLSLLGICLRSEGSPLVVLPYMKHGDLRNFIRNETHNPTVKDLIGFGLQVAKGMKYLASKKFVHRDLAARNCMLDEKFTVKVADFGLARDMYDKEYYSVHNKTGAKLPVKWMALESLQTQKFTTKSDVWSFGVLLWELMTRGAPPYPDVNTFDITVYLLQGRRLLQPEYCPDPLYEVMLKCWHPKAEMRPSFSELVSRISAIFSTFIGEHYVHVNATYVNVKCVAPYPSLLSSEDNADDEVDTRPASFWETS
Chain of IGF-IR (h) (P08069 959-1367 limits assumed): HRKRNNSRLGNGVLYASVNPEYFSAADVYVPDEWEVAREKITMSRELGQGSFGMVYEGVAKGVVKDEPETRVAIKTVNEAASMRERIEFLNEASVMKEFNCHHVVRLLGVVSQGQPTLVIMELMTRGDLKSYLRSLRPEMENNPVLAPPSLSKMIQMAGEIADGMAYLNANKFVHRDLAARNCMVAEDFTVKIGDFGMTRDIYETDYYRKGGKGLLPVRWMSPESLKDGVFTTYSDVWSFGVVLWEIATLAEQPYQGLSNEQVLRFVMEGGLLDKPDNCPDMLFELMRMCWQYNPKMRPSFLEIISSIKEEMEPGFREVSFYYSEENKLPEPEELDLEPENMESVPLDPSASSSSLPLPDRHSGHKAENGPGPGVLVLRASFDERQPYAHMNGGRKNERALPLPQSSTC
Chain of TrkA (h) (P04629 441-796 limits assumed): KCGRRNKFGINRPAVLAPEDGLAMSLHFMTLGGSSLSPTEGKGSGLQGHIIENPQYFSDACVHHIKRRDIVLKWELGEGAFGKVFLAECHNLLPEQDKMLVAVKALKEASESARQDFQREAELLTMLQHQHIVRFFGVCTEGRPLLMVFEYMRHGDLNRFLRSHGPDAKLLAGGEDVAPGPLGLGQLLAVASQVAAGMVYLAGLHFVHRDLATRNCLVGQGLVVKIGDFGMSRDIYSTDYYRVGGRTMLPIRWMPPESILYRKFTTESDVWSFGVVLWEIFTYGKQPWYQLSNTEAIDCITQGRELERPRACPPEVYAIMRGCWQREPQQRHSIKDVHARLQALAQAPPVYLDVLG
Chain of MAPKAP-K2 (h) (P49137 46-400 limits assumed): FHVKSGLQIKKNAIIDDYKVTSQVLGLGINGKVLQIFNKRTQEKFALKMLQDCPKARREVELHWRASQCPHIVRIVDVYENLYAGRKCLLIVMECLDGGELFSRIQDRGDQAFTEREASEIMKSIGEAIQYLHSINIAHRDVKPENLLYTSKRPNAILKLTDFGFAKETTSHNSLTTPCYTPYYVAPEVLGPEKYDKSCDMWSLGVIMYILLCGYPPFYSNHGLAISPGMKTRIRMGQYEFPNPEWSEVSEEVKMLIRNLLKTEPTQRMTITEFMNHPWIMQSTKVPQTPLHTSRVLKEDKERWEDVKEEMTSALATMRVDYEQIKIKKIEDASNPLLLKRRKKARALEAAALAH
Chain of GSK3β (h) (P49841 whole entry): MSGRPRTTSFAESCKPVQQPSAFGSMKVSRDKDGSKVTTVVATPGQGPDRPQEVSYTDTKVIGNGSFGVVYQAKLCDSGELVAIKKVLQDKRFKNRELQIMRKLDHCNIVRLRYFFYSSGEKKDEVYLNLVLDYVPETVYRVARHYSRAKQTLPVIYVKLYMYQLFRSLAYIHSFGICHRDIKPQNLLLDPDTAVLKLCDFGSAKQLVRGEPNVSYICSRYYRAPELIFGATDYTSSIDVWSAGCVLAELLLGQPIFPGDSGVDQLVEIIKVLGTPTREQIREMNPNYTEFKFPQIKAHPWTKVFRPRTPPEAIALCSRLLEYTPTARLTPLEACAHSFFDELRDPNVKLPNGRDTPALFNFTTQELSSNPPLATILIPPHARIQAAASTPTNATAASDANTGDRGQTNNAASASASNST
Chain of SAPK2 a (h) (Q16539 whole entry): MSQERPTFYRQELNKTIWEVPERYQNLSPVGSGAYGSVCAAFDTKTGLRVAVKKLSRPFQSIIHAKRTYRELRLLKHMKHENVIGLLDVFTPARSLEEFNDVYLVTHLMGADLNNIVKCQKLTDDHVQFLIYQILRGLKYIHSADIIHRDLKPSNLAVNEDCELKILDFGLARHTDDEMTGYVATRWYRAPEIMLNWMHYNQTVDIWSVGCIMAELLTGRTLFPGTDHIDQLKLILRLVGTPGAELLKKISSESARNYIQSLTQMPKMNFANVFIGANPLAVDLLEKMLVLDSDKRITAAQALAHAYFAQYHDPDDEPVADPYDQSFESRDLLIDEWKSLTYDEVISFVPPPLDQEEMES
Chain of Rsk2 (h) (P51812 whole entry): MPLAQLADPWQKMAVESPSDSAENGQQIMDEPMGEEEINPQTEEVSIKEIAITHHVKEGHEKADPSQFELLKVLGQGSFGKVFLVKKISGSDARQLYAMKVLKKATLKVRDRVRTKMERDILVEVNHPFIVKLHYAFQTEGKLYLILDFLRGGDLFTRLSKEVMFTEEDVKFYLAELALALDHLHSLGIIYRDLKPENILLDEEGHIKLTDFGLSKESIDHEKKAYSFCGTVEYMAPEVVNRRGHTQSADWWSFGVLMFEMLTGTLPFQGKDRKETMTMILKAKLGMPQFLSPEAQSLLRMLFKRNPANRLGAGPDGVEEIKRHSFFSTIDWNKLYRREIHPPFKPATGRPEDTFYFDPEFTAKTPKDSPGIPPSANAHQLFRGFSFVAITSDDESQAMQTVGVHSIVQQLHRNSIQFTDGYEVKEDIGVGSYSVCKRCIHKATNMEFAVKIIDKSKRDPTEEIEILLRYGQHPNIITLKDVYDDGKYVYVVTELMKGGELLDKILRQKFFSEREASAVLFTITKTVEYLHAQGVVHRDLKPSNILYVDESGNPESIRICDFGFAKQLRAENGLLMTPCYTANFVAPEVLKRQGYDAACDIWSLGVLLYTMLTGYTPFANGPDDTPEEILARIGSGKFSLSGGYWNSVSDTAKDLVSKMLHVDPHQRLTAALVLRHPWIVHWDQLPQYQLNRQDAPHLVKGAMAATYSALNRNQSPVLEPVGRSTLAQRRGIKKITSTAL
Chain of CK2 (h) (P68400 whole entry): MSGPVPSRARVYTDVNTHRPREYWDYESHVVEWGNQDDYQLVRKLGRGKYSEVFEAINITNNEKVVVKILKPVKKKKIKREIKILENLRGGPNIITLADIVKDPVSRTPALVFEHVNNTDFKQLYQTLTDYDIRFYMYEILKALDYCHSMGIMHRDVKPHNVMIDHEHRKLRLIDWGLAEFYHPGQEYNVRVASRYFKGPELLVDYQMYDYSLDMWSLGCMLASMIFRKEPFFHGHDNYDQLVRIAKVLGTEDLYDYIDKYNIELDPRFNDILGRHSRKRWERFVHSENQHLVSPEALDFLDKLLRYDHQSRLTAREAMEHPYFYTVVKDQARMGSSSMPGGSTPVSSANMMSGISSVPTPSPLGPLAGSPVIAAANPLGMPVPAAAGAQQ

Binder: FAKLAARLYRKALARQLGVAA
- Profile-1 @ = 100 µm (kinase profiler assay) [1]: 17
- Profile-1 @ = 100 µm (kinase profiler assay) [2]: 20
- Profile-1 @ = 100 µm (kinase profiler assay) [3]: 92
- Profile-1 @ = 100 µm (kinase profiler assay) [4]: 188
- Profile-1 @ = 100 µm (kinase profiler assay) [5]: 38
- Profile-1 @ = 100 µm (kinase profiler assay) [6]: 80
- Profile-1 @ = 100 µm (kinase profiler assay) [7]: 30
- Profile-1 @ = 100 µm (kinase profiler assay) [8]: 99
- Profile-1 @ = 100 µm (kinase profiler assay) [9]: 40
- Profile-1 @ = 100 µm (kinase profiler assay) [10]: 1
- Profile-1 @ = 100 µm (kinase profiler assay) [11]: 32
- Profile-1 @ = 100 µm (kinase profiler assay) [12]: 69
- Profile-1 @ = 100 µm (kinase profiler assay) [13]: 5
- Profile-1 @ = 100 µm (kinase profiler assay) [14]: 68
- Profile-1 @ = 100 µm (kinase profiler assay) [15]: 13
- Profile-1 @ = 100 µm (kinase profiler assay) [16]: 11
- Profile-1 @ = 100 µm (kinase profiler assay) [17]: -1
- Profile-1 @ = 100 µm (kinase profiler assay) [18]: 17
- Profile-1 @ = 100 µm (kinase profiler assay) [19]: 65
